test: soluble on expression in E. coli; label from the status in PepcDB or PDB records

Row | Sequence | soluble on expression in E. coli
1 | WTVIGGYLIVAGKDATTNEMLIKRYVEKNDIVFHTLMEGAPFTIIRTEGSEEIPDENILFEVAKFAASHSRAWKLGIGSADVYWVRPDQISKTAESGEYLKK | not soluble
2 | MGHHHHHHSHMLKIIRAGMYTTVQDGGRHGFRQSGISHCGALDMPALRIANLLVGNDANAPALEITLGQLTVEFETDGWFALTGAGCEARLDDNAVWTGWRLPMKAGQRLTLKRPQHGMRSYLAVAGGIDVPPVMGSCSTDLKVGIGGLEGRLLKDGDRLPIGKSKRDSMEAQGVKQLLWGNRIRALPGPEYHEFDRASQDAFWRSPWQLSSQSNRMGYRLQGQILKRTTDRELLSHGLLPGVVQVPHNGQPIVLMNDAQTTGGYPRIACIIEADMYHLAQIPLGQPIHFVQCSLEEALKARQDQQRYFEQLAWRLHNEN | not soluble
3 | MKRLIGLVIVALVLLAACGSNNDKKVTIGVASNDTKAWEKVKELAKKDDIDVEIKHFSDYNLPNKALNDGDIDMNAFQHFAFLDQYKKAHKGTKISALSTTVLAPLGIYSDKIKDVKKVKDGAKVVIPNDVSNQARALKLLEAAGLIKLKKDFGLAGTVKDITSNPKHLKITAVDAQQTARALSDVDIAVINNGVATKAGKDPKNDPIFLEKSNSDAVKPYINIVAVNDKDLDNKTYAKIVELYHSKEAQKALQEDVKDGEKPVNLSKDEIKAIETSLAK | soluble
4 | MTKTEKDWFQRLIKLIKSDGRTMIEISKAAGCGQNYVQQMIKGGKRPSVDKLMALLNTLGNASAIYVITGFNISDEDLKLIALISSGDKKKIEALSLLLTEKKQ | not soluble
5 | MGSDKIHHHHHHMSKAKRLMELMMVINRKRRFTVKELAEEFSVSSRTILRDLQELSELGVPLYSEVGPHGGYEVLNERVLPPIAFTEEEAVAIFFTVHALRHFSALPFQAESSSVNHKFYSYMPEDVKERIDQLKNRFDFETPMRPLATPYLPTLLDAAIKQNVVSIEYETSQEKTKREIQPIGVYARDGFWYCPSYCFLREDMRLFRCDRITYVTEQTTNNPLNFRHVHLGNWQSYMKQERNVLDFYVELSQDGVQRCVAEQWLKPHLHIRQDGSGWLEGPFPESEVPYFSYYFIGFGHDATVKQPVQLVTLIKKSLRELLSKYNGEKEGLPQKSF | not soluble
6 | PSSNGPLEGTRGKLKNKPRDRGTSPPQRAVEEFDDGEKVHLKIDPSVPNGRFHPRFDGQTGTVEGKQGDAYKVDIVDGGKEKTIIVTAAHLRRQE | soluble
7 | MRKLLAVFSKGRWKMEQKLQEQLDGLLEKYTELLLGETNDELKEEVKQWILYTHIAKSMPPLAKHWNATYPDAKQGIKEIIQHIKELNEAHRNKQLEHHHHHH | soluble
8 | LESLEVMIMLDTLRAINNPLNDYALVALLRSPMFNFNEDDLTRIAVQADKGQFYDKLLAAHTKSGLHPEVVMQGLEAKLTLFTETLADWRDYSKCHSIYDLIWKIYNDRFYYDYVGGLPRAEQRQANLYALALRANAYEKTGFKGLSRFIGMI | not soluble
9 | MAMADEQFENYLVMCYDKLESKQQKFISDYNIYNFDEYCYDQDPCILQFKKNGQVLLEFSVVFIGSWSGKSNSWMWSWANENVADYARSKSNCLKDLQKITGSEVFINPLFECDQEMAYELAAFSIEYLDAEGMYMAPGERSDVFMAVMSPHAL | not soluble
10 | MKPRNINNSLPLQPLVPDQENKNKKNEEKSVNPVKITMGSGLNYIEQESLGGKYLTHDLSIKIADISEEIIQQAILSAMSIYKFSITDDLMSMAVNELIKLTKIENNVDLNKFTTICTDVLSPRVTRHNKEKNKRHSTLLKNPLFNFH | not soluble
11 | GPGSMRISERAFMDIAIGTKAPRRIVFKLFPRKCPSAVKNFIELCSGNVSTDTYESGNRDKLISESALPQLTYKNSTFHRVEKGYLIQGGDIVTGRGTEQLSIYGGTFSAPEEVRASVFDKPGLVGTASSSPNAHGSQFFILTAKEANHLNGTCICFGQVADGLDVVQEIEQVPIDPSGFPSLKVSIVDCGVLE | soluble
12 | MRVCLLASGSKGNSLFIETGESRILIDAGLSARELVRRLSLIGVDAAQLDALFISHEHTDHVRGAGVLARKYRIPVHVSYPTHREISGQIHGVYVTEFESGYSFTFRDLLVDPFRITHDACDPVGFTVESREGKVGIATDLGTATRLVADKLAGCRALVVESNHDEGMLMDGPYPWHLKQRIKSRHGHLSNNDTAALLAEVINPGLEGLFLAHLSEVNNDPVMARQVTASFLAGQNICSPRLVVGDQYRPSELLNILEHHHHHH | not soluble
13 | MAITDILSAKDIESALSSCQAADSFNYKSFFSTVGLSSKTPDQIKKVFGILDQDKSGFIEEEELQLFLKNFSSSARVLTSAETKAFLAAGDTDGDGKIGVEEFQSLVKA | soluble
14 | MMCTAKKCGIRFQPPAIILIYESEIKGKIRQRIMPVRNFSKFSDCTRAAEQLKNNPRHKSYLEQVSLRQLEKLFSFLRGYLSGQSLAETMEQIQRETTIDPEEDLNKLDDKELAKRKSIMDELFEKNQKKKDDPNFVYDIEVEFPQDDQLQSCGWDTESADEF | soluble
15 | MKEDPRIIKTLSKLQKAFVMLLKTYDAGDINVRQISDEAGVTRGAFYSHFSDKKEFVNFTINELVGSLFNSSLKDSVGFVDEVNHKNAHGTNVLSVSNFFDKVAADYQTYTIVLDTEKLPQFTEVLKERLNSEIKTFAEYYGKKVKHDGFPIEVLSSYYVNGLIGMIRMWLDEGMVYTSHYMANAAKKILGTKIQIDSQNIDLSDFFVDLEHHHHHH | soluble
16 | AHHHHHHGSDKVYLTWWQVDRAIFALAEKLREYKPDVIVGIARGGLIPAVRLSHILGDIPLKVIDVKFYKGIEERGEKPVITIPIHGDLKDKKVVIVDDVSDTGKTLEVVIEEVKKLGAKEVKVACLAMKPWTSVVPDYYVFRTEKWIVFPWEEFPVIERE | not soluble
17 | GSPQAHPVPKDARITHSSGQSFEQMRQECLQRGTLFEDADFPASNSSLFYSERPQIPFVWKRPGEIVKNPEFILGGATRTDICQGELGDCWLLAAIASLTLNQKALARVIPQDQSFGPGYAGIFHFQFWQHSEWLDVVIDDRLPTFRDRLVFLHSADHNEFWSALLEKAYAKLNGSYEALKGGSAIEAMEDFTGGVAETFQTKEAPENFYEILEKALKRGSLLGCFIDTRSAAESEARTPFGLIKGHAYSVTGIDQVSFRGQRIELIRIRNPWGQVEWNGSWSDSSPEWRSVGPAEQKRLCHTALDDGEFWMAFKDFKAHFDKVEICNLTPDA | soluble
18 | MAGIAMKLAKDREAAEGLGSHERAIKYLNQDYETLRNECLEAGALFQDPSFPALPSSLGFKELGPYSSKTRGIEWKRPTEICADPQFIIGGATRTDICQGALGDSWLLAAIASLTLNEEILARVVPLDQSFQENYAGIFHFQFWQYGEWVEVVVDDRLPTKDGELLFVHSAEGSEFWSALLEKAYAKINGCYEALSGGATTEGFEDFTGGIAEWYELRKPPPNLFKIIQKALEKGSLLGCSIDITSAADSEAVTYQKLVKGHAYSVTGAEEVESSGSLQKLIRIRNPWGQVEWTGKWNDNCPSWNTVDPEVRANLTERQEDGEFWMSFSDFLRHYSRLEICNLTPDTLTCDSYKKWKLTKMDGNWRRGSTAGGCRNYPNTFWMNPQYLIKLEEEDEDDEDGERGCTFLVGLIQKHRRRQRKMGEDMHTIGFGIYEVPEELTGQTNIHLSKNFFLTTRARERSDTFINLREVLNRFKLPPGEYVLVPSTFEPHKNGDFCIRVFSEKKADYQTVDDEIEANIEEIEANEEDIGDGFRRLFAQLAGEDAEISAFELQTILRRVLAKREDIKSDGFSIETCKIMVDMLDEDGSGKLGLKEFYILWTKIQKYQKIYREIDVDRSGTMNSYEMRKALEEAGFKLPCQLHQVIVARFADDELIIDFDNFVRCLVRLEILFKIFKQLDPENTGTIQLDLISWLSFSVLGKLAAALEHHHHHH | soluble
19 | LQIFSKEGLLIQEYGEKKRIPVTYDEIPPTLIHALIATEDQRFFEHPGVDVMGLGRAAVSMLKTGTKSQGGSTITMQVARNFFLSRKKTFLRKFNEIMLAIKIDRELSKEKILELYLNRVYLGNRAYGVGAAAMVYFGKSLKDLNLAELAMIAGLPQAPSTQNPIANP | not soluble
20 | MKKLAAIISATLLFASSAAVAEVYVGGKVGKSWLDDACLAGQSCEDDDQVVGAFLGYQANKWLSLEAGYDYLGKFTAAGLNDEKVQAVTLAPKLSIPLTEGIALYGKVGGAYVDYGSKDDYSYLGAAGLEFNTNHNVTMRLEYQNLTDINNDIVRARAETATLGIAYKFGGSEEPAPVVEQRPAEPAPVAAPVEKVAVTKTFTFQHLDSSTFATASAELKPATVQKLDKIVGYLNQYPQAKVEVVGHTDSTGSEAYNQKLSERRAQAVAKALEAQGIDASRISAKGLGESSPIASNATAEGREKNRRVELVIPEFQYQVTE | not soluble
21 | MGSDKIHHHHHHMKLAVISSIYKNDSLSKIKQSLQSLLNQENVTCDIYLYCDGPVSIDIVHFLDSFDQNSLYIFKQEQNRGLAHALNELLNIVLTKEYEYIARMDADDISMPERFVKQIAFMNSHPDIDCLGTWAIEIDDDGKEYFRKKMPITHEECLELFKKRDCMIHPTVMFRRSYFEKAGLYPEDTYFGEDTMMWAKGFKSGCKFANVPEYLFKFRLDSNFFERRRGWKHAKSIYTLRHRVNRMLGFGWKEDCYALLYAMAKLMPKSILDIIYKTVR | not soluble
22 | MTSSIPFRSFNEKYECNDDDNFTYSSTEQKRIETMLFENYNSLVLEPFKTTSDEDLAELTIFRQKHASYLLRYLKNCPSSYATLDASRSWMCYWGVNALKILDAEIPNDVIENIIVFLKSCEHPEGGYGGGPGQLAHLAPTYAAVMCLVSLQKEEALRSINRVTLFNFLKKCKHESGGFYMHEGGEIDMRSAYCALATCEIVGLPMDEISNGVAEWIISCQSFEGGFGGEPYTEAHGGYTFCAVASLVLLNRFRLADMEGLLRWATRRQMRFEGGFQGRTNKLVDGCYSFWQGAIFPLLDGEMEREGRSLEKGLFEARMLEEYILVGCQSVHGGFKDKPDKPVDLYHTCYVLSGLSVAQKYSLARDGKILGGDVNMLAEINPVFNVTIASEQFAKEFFTSH | not soluble
23 | MSLIEELFDQMSKGNLLLIDMTYDMFNGMQTYIGDPPFKHEYFRKGNKYGEVTLSTVYMGLHSGTHIDLPLHFVPNGESVEKFNIIQFIGYGNVLDLSYKKLGEPISSNDLKKFDDRIKENYVVMLYTGFSATRGKEDFLYNWPYLDSNGADYLVSKKIRAVGIESMSIAGWAGKEYPPRTNWDEVVYVHHKLLSNDIIILESVNNMKKVLEECKNGEALFFYAPLKIVGAEGGPTRLFAICEKREGHHHHHH | not soluble
24 | MAGDPMVNRETLIARIEQELVQAEQAQHDHDFEKHMYAIHILTSLYASTSNTPHIGEQQMNRRIANHNQMPQSQITQPTHQVTAAEIEAMGGKVNTHSAHHHNKSYSQPSNQQQRLATDDDIGNGESIFDFLEHHHHHH | not soluble
25 | MGQAPDRPHLETFLARLRAGAKILELGCGGGQDSEYMLSAGFDVHPTDGTPDIAKAAQARLGIPVRTLLFENIEDAALYDAVWANACLLHVPRLALPGIIGRIHTALKPGGVFYASFKAGEVEGRDTFGRYYNYPSKAWLEETYGQFAWTEVEIEARQGSGYDKLPTDWLHVTATKALEHHHHHH | not soluble
26 | TDKTFFDAKMEEQAKRHAQHNNTESNLEPDIKNAPGGIRDMNQIGWIAKRHFRVNRIYDLVHLGFITEYELKVLEEAESFLWEIRHHLHLLSKRDENRLLFDHQREIAAKFGYTRAEGQPVNFAVEQFMKRYYRTAQQVSTLNEMLLAYFNESVITPRLPNYERKIEEINENFKLVDGKLAVQHHKVFSENPSAILELFYLLANHPEIEGIRARTLRLLIMAAKRID | not soluble

Reference: the DeepSol protein solubility set
